This is an account of results in article PMC8892499.

Read-outs that look alike come from different tables or passages of the source.

Assay [1] concerns the target OmpX_(1,149), double-cysteine variant of outer membrane protein X, labeled with FRET donor and acceptor dyes, unfolded (uOmpX) (UniProt P0A917). As to the kind of experiment: single-molecule FRET (smFRET) titration, intramolecular FRET of labeled uOmpX; 20 pM labeled uOmpX diluted from 6 M GdmCl into buffer with chaperone (Skp3 from 0.5 nM to 2.5 µM; SurA 46 nM to 25 µM); 20 mM Tris-HCl pH 8.0, 150 mM NaCl, 6 mM GdmCl, 87.5 nM LDAO; 37 °C; bound fraction from three Gaussian distributions; Hill coefficient set to 1 (Skp3) and 1.5 (SurA).

Assay [2] has the same target. As to the kind of experiment: single-molecule FRET (smFRET) titration, intramolecular FRET of labeled uOmpX; as the titration at 37 °C, but at 25 °C: 20 pM labeled uOmpX in buffer with Skp3 or SurA; 20 mM Tris-HCl pH 8.0, 150 mM NaCl; Hill coefficient set to 1 (Skp3) and 1.5 (SurA).
Assay [3] shares this target. Briefly: single-molecule FRET (smFRET) titration, intramolecular FRET of labeled uOmpX; global analysis of FRET efficiency distributions at different chaperone concentrations and temperatures (25, 31, 37 °C); ΔH and ΔS from the temperature dependence of Ka; errors by bootstrapping.
For assay [4] the target is unchanged. The description is as above. The source holds these as a separate data set.
For assay [5] the target is unchanged. Briefly: single-molecule FRET (smFRET) titration, intramolecular FRET of labeled uOmpX; 20 pM labeled uOmpX diluted from 6 M GdmCl into buffer with chaperone (Skp3 from 0.5 nM to 2.5 µM; SurA 46 nM to 25 µM); 20 mM Tris-HCl pH 8.0, 150 mM NaCl, 6 mM GdmCl, 87.5 nM LDAO; 37 °C; bound fraction from three Gaussian distributions; Hill coefficient set to 1 (Skp3) and 1.5 (SurA). The source holds these as a separate data set.

Usually Kd stands for the constant that tells how readily two partners part at equilibrium. Read a low Kd as higher affinity. With “survival factor A (SurA) (from UniProt P0ABZ6 21-428) (natural protein)”, in assay [1], the equilibrium dissociation constant (Kd) amounted to 8200 nM, the c1/2 (inverse of Ka) stood at 407 nM and the percent of uOmpX molecules bound at ~6 µM SurA came to 87%. In assay [2], this molecule gave a dissociation constant (Kd) of 1000 nM and a c1/2 (inverse of Ka) of 103 nM. In assay [3], the dH was -31.5 kcal/mol.

B1: 17-kilodalton protein (Skp), trimer (Skp3) (natural protein)
chain: ADKIAIVNMGSLFQQVAQKTGVSNTLENEFKGRASELQRMETDLQAKMKKLQSMKAGSDRTKLEKDVMAQRQTFAQKAQAFEQDRARRSNEERGKLVTRIQTAVKSVANSQDIDLVVDANAVAYNSSDVKDITADVLKQVK
In turn, B1 displayed a dH in assay [4] of -71.2 kcal/mol. Also, in assay [5], the dissociation constant Kd stood at 359 nM, the c1/2 (inverse of Ka) turned out to be 359 nM and the percent of uOmpX molecules bound at 2.5 µM Skp3 was found to be 80%. In assay [2], the Kd was determined as 3.6 nM and the c1/2 (inverse of Ka) amounted to 3.55 nM.
